From patent US20250262210A1 (TRUSTEES OF COLUMBIA UNIVERSITY IN THE CITY OF NEW YORK, published 2025)
Where a chain is given by its changes, count along the chain named.

T1: LZTR1 R810W-FLAG (human, UniProt Q8N653 1-840)
T1 construct: Stably expressed in U87 cells by lentivirus; also called LZTR1-FLAG-R810W; LZTR1 RW; not shown: FLAG tag
T1 sequence (looked up): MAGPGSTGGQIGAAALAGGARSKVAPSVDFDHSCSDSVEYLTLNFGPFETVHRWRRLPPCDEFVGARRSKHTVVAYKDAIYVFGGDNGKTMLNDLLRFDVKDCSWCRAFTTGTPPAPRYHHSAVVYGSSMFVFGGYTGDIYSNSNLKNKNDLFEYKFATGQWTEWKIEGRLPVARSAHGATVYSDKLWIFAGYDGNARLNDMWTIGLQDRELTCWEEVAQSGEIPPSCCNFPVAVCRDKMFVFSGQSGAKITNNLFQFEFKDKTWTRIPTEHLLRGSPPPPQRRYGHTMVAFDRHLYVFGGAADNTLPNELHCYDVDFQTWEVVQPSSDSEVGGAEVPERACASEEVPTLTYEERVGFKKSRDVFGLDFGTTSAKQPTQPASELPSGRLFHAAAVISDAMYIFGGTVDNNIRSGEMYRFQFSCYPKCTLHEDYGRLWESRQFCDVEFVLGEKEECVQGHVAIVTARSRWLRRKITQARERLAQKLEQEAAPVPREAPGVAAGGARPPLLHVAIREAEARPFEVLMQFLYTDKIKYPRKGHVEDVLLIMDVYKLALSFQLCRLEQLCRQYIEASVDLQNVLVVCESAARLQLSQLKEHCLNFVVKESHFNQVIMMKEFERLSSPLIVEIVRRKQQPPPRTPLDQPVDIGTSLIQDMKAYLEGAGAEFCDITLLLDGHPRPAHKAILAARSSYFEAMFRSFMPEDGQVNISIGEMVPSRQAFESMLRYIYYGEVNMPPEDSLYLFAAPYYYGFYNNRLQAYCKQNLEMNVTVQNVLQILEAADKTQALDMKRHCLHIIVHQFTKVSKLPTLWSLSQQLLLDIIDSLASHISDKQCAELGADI

T2: LZTR1-FLAG (human, UniProt Q8N653 1-840)
T2 construct: Expressed in HEK 293T, HeLa or U87 cells; used as cell lysate; also called LZTR1 wild type-FLAG; LZTR1 WT; not shown: FLAG tag at the C-terminus
T2 sequence (looked up): T1 sequence (looked up) with W810R

B1: MALT1 (other, human, UniProt Q9UDY8 2-824, looked up)
chain: SLLGDPLQALPPSAAPTGPLLAPPAGATLNRLREPLLRRLSELLDQAPEGRGWRRLAELAGSRGRLRLSCLDLEQCSLKVLEPEGSPSLCLLKLMGEKGCTVTELSDFLQAMEHTEVLQLLSPPGIKITVNPESKAVLAGQFVKLCCRATGHPFVQYQWFKMNKEIPNGNTSELIFNAVHVKDAGFYVCRVNNNFTFEFSQWSQLDVCDIPESFQRSVDGVSESKLQICVEPTSQKLMPGSTLVLQCVAVGSPIPHYQWFKNELPLTHETKKLYMVPYVDLEHQGTYWCHVYNDRDSQDSKKVEIIIGRTDEAVECTEDELNNLGHPDNKEQTTDQPLAKDKVALLIGNMNYREHPKLKAPLVDVYELTNLLRQLDFKVVSLLDLTEYEMRNAVDEFLLLLDKGVYGLLYYAGHGYENFGNSFMVPVDAPNPYRSENCLCVQNILKLMQEKETGLNVFLLDMCRKRNDYDDTIPILDALKVTANIVFGYATCQGAEAFEIQHSGLANGIFMKFLKDRLLEDKKITVLLDEVAEDMGKCHLTKGKQALEIRSSLSEKRALTDPIQGTEYSAESLVRNLQWAKAHELPESMCLKFDCGVQIQLGFAAEFSNVMIIYTSIVYKPPEIIMCDAYVTDFPLDLDIDPKDANKGTPEETGSYLVSKDLPKHCLYTRLSSLQKLKEHLVFTVCLSYQYSGLEDTVEDKQEVNVGKPLIAKLDMHRGLGRKTCFQTCLMSNGPYQSSAATSGGAGHYHSLQDPFHGVYHSHPGNPSNVTPADSCHCSRTPDAFISSFAHHASCHFSRSNVPVETTDEIPFSFSDRLRISEK
B2: NGLY1 (other, human, UniProt Q96IV0 2-654, looked up)
chain: AAAALGSSSGSASPAVAELCQNTPETFLEASKLLLTYADNILRNPNDEKYRSIRIGNTAFSTRLLPVRGAVECLFEMGFEEGETHLIFPKKASVEQLQKIRDLIAIERSSRLDGSNKSHKVKSSQQPAASTQLPTTPSSNPSGLNQHTRNRQGQSSDPPSASTVAADSAILEVLQSNIQHVLVYENPALQEKALACIPVQELKRKSQEKLSRARKLDKGINISDEDFLLLELLHWFKEEFFHWVNNVLCSKCGGQTRSRDRSLLPSDDELKWGAKEVEDHYCDACQFSNRFPRYNNPEKLLETRCGRCGEWANCFTLCCRAVGFEARYVWDYTDHVWTEVYSPSQQRWLHCDACEDVCDKPLLYEIGWGKKLSYVIAFSKDEVVDVTWRYSCKHEEVIARRTKVKEALLRDTINGLNKQRQLFLSENRRKELLQRIIVELVEFISPKTPKPGELGGRISGSVAWRVARGEMGLQRKETLFIPCENEKISKQLHLCYNIVKDRYVRVSNNNQTISGWENGVWKMESIFRKVETDWHMVYLARKEGSSFAYISWKFECGSVGLKVDSISIRTSSQTFQTGTVEWKLRSDTAQVELTGDNSLHSYADFSGATEVILEAELSRGDGDVAWQHTQLFRQSLNDHEENCLEIIIKFSDL
B3: MCMBP (other, human, UniProt Q9BTE3 1-642, looked up)
chain: MPCGEDWLSHPLGIVQGFFAQNGVNPDWEKKVIEYFKEKLKENNAPKWVPSLNEVPLHYLKPNSFVKFRCMIQDMFDPEFYMGVYETVNQNTKAHVLHFGKYRDVAECGPQQELDLNSPRNTTLERQTFYCVPVPGESTWVKEAYVNANQARVSPSTSYTPSRHKRSYEDDDDMDLQPNKQKDQHAGARQAGSVGGLQWCGEPKRLETEASTGQQLNSLNLSSPFDLNFPLPGEKGPACLVKVYEDWDCFKVNDILELYGILSVDPVLSILNNDERDASALLDPMECTDTAEEQRVHSPPASLVPRIHVILAQKLQHINPLLPACLNKEESKTCKFVSSFMSELSPVRAELLGFLTHALLGDSLAAEYLILHLISTVYTRRDVLPLGKFTVNLSGCPRNSTFTEHLYRIIQHLVPASFRLQMTIENMNHLKFIPHKDYTANRLVSGLLQLPSNTSLVIDETLLEQGQLDTPGVHNVTALSNLITWQKVDYDFSYHQMEFPCNINVFITSEGRSLLPADCQIHLQPQLIPPNMEEYMNSLLSAVLPSVLNKFRIYLTLLRFLEYSISDEITKAVEDDFVEMRKNDPQSITADDLHQLLVVARCLSLSAGQTTLSRERWLRAKQLESLRRTRLQQQKCVNGNEL
B4: PAFAH1B1 (other, human, UniProt P43034 1-410, looked up)
chain: MVLSQRQRDELNRAIADYLRSNGYEEAYSVFKKEAELDVNEELDKKYAGLLEKKWTSVIRLQKKVMELESKLNEAKEEFTSGGPLGQKRDPKEWIPRPPEKYALSGHRSPVTRVIFHPVFSVMVSASEDATIKVWDYETGDFERTLKGHTDSVQDISFDHSGKLLASCSADMTIKLWDFQGFECIRTMHGHDHNVSSVAIMPNGDHIVSASRDKTIKMWEVQTGYCVKTFTGHREWVRMVRPNQDGTLIASCSNDQTVRVWVVATKECKAELREHEHVVECISWAPESSYSSISEATGSETKKSGKPGPFLLSGSRDKTIKMWDVSTGMCLMTLVGHDNWVRGVLFHSGGKFILSCADDKTLRVWDYKNKRCMKTLNAHEHFVTSLDFHKTAPYVVTGSVDQTVKVWECR
B5: NDC80 (other, human, UniProt O14777 1-642, looked up)
chain: MKRSSVSSGGAGRLSMQELRSQDVNKQGLYTPQTKEKPTFGKLSINKPTSERKVSLFGKRTSGHGSRNSQLGIFSSSEKIKDPRPLNDKAFIQQCIRQLCEFLTENGYAHNVSMKSLQAPSVKDFLKIFTFLYGFLCPSYELPDTKFEEEVPRIFKDLGYPFALSKSSMYTVGAPHTWPHIVAALVWLIDCIKIHTAMKESSPLFDDGQPWGEETEDGIMHNKLFLDYTIKCYESFMSGADSFDEMNAELQSKLKDLFNVDAFKLESLEAKNRALNEQIARLEQEREKEPNRLESLRKLKASLQGDVQKYQAYMSNLESHSAILDQKLNGLNEEIARVELECETIKQENTRLQNIIDNQKYSVADIERINHERNELQQTINKLTKDLEAEQQKLWNEELKYARGKEAIETQLAEYHKLARKLKLIPKGAENSKGYDFEIKFNPEAGANCLVKYRAQVYVPLKELLNETEEEINKALNKKMGLEDTLEQLNAMITESKRSVRTLKEEVQKLDDLYQQKIKEAEEEDEKCASELESLEKHKHLLESTVNQGLSEAMNELDAVQREYQLVVQTTTEERRKVGNNLQRLLEMVATHVGSVEKHLEEQIAKVDREYEECMSEDLSENIKEIRDKYEKKATLIKSSEE
B6: MELK (other, human, UniProt Q14680 1-651, looked up)
chain: MKDYDELLKYYELHETIGTGGFAKVKLACHILTGEMVAIKIMDKNTLGSDLPRIKTEIEALKNLRHQHICQLYHVLETANKIFMVLEYCPGGELFDYIISQDRLSEEETRVVFRQIVSAVAYVHSQGYAHRDLKPENLLFDEYHKLKLIDFGLCAKPKGNKDYHLQTCCGSLAYAAPELIQGKSYLGSEADVWSMGILLYVLMCGFLPFDDDNVMALYKKIMRGKYDVPKWLSPSSILLLQQMLQVDPKKRISMKNLLNHPWIMQDYNYPVEWQSKNPFIHLDDDCVTELSVHHRNNRQTMEDLISLWQYDHLTATYLLLLAKKARGKPVRLRLSSFSCGQASATPFTDIKSNNWSLEDVTASDKNYVAGLIDYDWCEDDLSTGAATPRTSQFTKYWTESNGVESKSLTPALCRTPANKLKNKENVYTPKSAVKNEEYFMFPEPKTPVNKNQHKREILTTPNRYTTPSKARNQCLKETPIKIPVNSTGTDKLMTGVISPERRCRSVELDLNQAHMEETPKRKGAKVFGSLERGLDKVITVLTRSKRKGSARDGPRRLKLHYNVTTTRLVNPDQLLNEIMSILPKKHVDFVQKGYTLKCQTQSDFGKVTMQFELEVCQLQKPDVVGIRRQRLKGDAWVYKRLVEDILSSCKV

molecular target: T1, LZTR1 R810W-FLAG; experiment: IP/MS, LZTR1 R810W-FLAG, U87
Outline: (§1)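 Extracted peptides in 3% acetonitrile/0.1% formic acid ran on a 50 cm C18 column into an Orbitrap Fusion, with MaxQuant identification and spectral counting.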

Binding result, binds:
B1
B2
B3
B4
B5
B6

molecular target: T2, LZTR1-FLAG; experiment: IP/MS, LZTR1 wild type-FLAG, U87
Outline: as §1

Binding result, binds:
B1
B2
B3
B4
B5
B6
